In patent US20260184815A1 (published 2026):

B1: M76-G02 (Fab, V domains shown)
VH: EVQLLESGGGLVQPGGSLRLSCAASGFTFSLYAMWWVRQAPGKGLEWVSYISSSGGFTSYADSVKGRFTISRDNSKNTLYLQMNSLRAEDTAVYYCARYRVGVAATDYWGQGTLVTVSS
VL: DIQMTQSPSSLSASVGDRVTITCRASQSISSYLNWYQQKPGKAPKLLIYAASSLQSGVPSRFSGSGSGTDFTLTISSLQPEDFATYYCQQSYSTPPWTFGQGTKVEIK
notes: HC as printed runs into CH1
B2: M76-H02 (Fab, V domains shown)
VH: EVQLLESGGGLVQPGGSLRLSCAASGFTFSMYWMQWVRQAPGKGLEWVSYIYPSGGPTKYADSVKGRFTISRDNSKNTLYLQMNSLRAEDTAVYYCARPSGSYGDAFDIWGQGTMVTVSS
VL: DIQMTQSPSSLSASEGDRVTITCRASQDISVYLNWYQMKSGKAPKLLIYGGASLQSGVPARFSGSGYGTDFTLTITDLRPEDFATYYCQQSYSLPFTFGGGTKVEIK
notes: HC as printed runs into CH1
B3: M76-G06 (Fab, V domains shown)
VH: EVQLLESGGGLVQPGGSLRLSCAASGFTFSGYIMHWVRQAPGKGLEWVSWIYPSGGWTEYADSVKGRFTISRDNSKNTLYLQMNSLRAEDTAVYYCARDAPGVGAIDYWGQGTLVTVSS
VL: DIQMTQSPSSLSASVRDRVTITCRASQSISTYLNWYQQKPGEAPKLLVFAASSLQSGVPSRFSGSGSGTDFTLSISSLQPEDFATYYCQQSYSTPHTFGQGAKVEIK
notes: HC as printed runs into CH1
B4: M29-G10 (Fab, V domains shown)
VH: EVQLLESGGGLVQPGGSLRLSCAASGFTFSFYKMIWVRQAPGKGLEWVSSISSSGGSTQYADSVKGRFTISRDNSKNTLYLQMNSLRAEDTAVYYCARDRVDLGYLDYWGQGTLVTVSS
VL: DIQMTQSPSSLSSSVGDSATITCRASQSISIYLNWYQQKPGKAPKILIYGASQLESGVPSRFSGSGSGTDFTLTVSGLQPEDFATYWCQQSYNVPYTFGQGTKLEIK
notes: HC as printed runs into CH1
B5: M29-D10 (Fab, V domains shown)
VH: EVQLLESGGGLVQPGGSLRLSCAASGFTFSWYPMYWVRQAPGKGLEWVSSIGSSGGPTPYADSVKGRFTISRDNSKNTLYLQMNSLRAEDTAVYYCARWADYGGSLDYWGQGTLVTVSS
VL: DIQMTQSPSSLSASVGDTVSITCRASQSITIYLNWYQHKPGKAPNLLIYGASNLHSGVPSRFSGSGSGTDFTLTISSLQPEDFATYYCQQSYDTPLTFGGGTKVEIK
notes: HC as printed runs into CH1
B6: M29-G08 (Fab, V domains shown)
VH: EVQLLESGGGLVQPGGSLRLSCAASGFTFSYYHMWWVRQAPGKGLEWVSGISPSGGFTFYADSVKGRFTISRDNSKNTLYLQMNSLRAEDTAVYYCARDYYYDSSGYSPLGYWGQGTLVTVSS
VL: DIQMTQSPATLSASPGETVTLSCRASQNIGNDVAWYRQRPGQAPRLLIHHASTRAYGIPARLRGSGSATEFTLTITSLEPEDFAIYYCQQFYDWPAHTFALGTRLEIKR
notes: HC as printed runs into CH1
B7: M76-F02 (Fab, V domains shown)
VH: EVQLLESGGGLVQPGGSLRLSCAASGFTFSLYDMNWVRQAPGKGLEWVSGISPSGGQTMYADSVKGRFTISRDNSKNTLYLQMNSLRAEDTAVYYCARQPMISAFDIWGQGTMVTVSS
VL: DIQMTQSPSSLSASVGDRVTITCRASQTIDNYLHWYQQKPGKAPKVLIHDASSLQSGVPPRFSGSGSGTDFTLTISSLQPEDFATYYCQQSYDTPQYTFGQGTKLEIK
notes: HC as printed runs into CH1
B8: M74-A07 (Fab, V domains shown)
VH: EVQLLESGGGLVQPGGSLRLSCAASGFTFSQYLMMWVRQAPGKGLEWVSSIYPSGGYTSYADSVKGRFTISRDNSKNTLYLQMNSLRAEDTAVYYCARVSTAVADNDYWGQGTLVTVSS
VL: DIQMTQSPSSLSASVRDRVTITCRTSQNINTYLNWYYQAPGRAPKLLIFGVSSLHRGVSSRFSGSGDGTEFTLTISSLQPEDIGTYFCQQSYSSPWTFGQGTKVEIK
notes: HC as printed runs into CH1
B9: M29-E02 (Fab, V domains shown)
VH: EVQLLESGGGLVQPGGSLRLSCAASGFTFSRYPMMWVRQAPGKGLEWVSVIYPSGGDTFYADSVKGRFTISRDNSKNTLYLQMNSLRAEDTAVYYCASGDDYLWEAAVYWGQGTLVTVSS
VL: QSVLTQPPSVSEAPRQRVTISCSGSSSNIGNNAVSWYQQLPGKAPKLLIYYDDLLPSGVSDRFSGSKSGTSASLAISGLRSEDEADYYCAAWDDSLNGFVFGTGTKVTVL
notes: HC as printed runs into CH1

target: T1, human plasma kallikrein (human, UniProt P03952 20-390; P03952 391-638); test: ELISA, biotinylated pKal signal over streptavidin background
T1 construct: also called pKal; Human pKal
T1 sequence (P03952 20-390, chain 1 of 2): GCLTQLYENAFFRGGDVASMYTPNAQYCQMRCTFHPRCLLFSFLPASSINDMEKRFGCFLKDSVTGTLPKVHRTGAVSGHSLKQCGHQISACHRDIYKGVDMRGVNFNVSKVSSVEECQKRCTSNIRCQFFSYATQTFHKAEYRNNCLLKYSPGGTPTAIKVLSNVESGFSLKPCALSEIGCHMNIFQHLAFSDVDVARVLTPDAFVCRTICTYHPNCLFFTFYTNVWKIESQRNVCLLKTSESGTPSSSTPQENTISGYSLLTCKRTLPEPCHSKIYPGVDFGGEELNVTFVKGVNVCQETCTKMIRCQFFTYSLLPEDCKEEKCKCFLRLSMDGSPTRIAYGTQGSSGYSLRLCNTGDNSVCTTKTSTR
T1 sequence (P03952 391-638, chain 2 of 2): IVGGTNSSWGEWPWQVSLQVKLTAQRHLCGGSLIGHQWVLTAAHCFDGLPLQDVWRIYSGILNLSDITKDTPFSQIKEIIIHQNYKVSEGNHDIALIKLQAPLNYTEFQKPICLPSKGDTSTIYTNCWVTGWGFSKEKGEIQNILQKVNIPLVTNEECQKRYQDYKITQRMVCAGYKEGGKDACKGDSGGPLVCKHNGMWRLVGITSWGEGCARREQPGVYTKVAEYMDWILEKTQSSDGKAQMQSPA
Source text: Abbreviations used: “T/B” is the ELISA signal obtained using of the “target” (biotinylated plasma kallikrein) divided by the ELISA signal of the “background” (streptavidin); both of which were coated on microtiter plates, “nd” is not determined. The symbol “q” refers to the amber suppressible stop codon (TAG), which is translated as glutamine (Q) in strains of E. coli such as the TG1 cells that were used to express the Fab fragments.

ELISA (T/B) | Binder
10.3 T/B | B1
13.4 T/B | B2
11.8 T/B | B3
16.4 T/B | B4
23.6 T/B | B5
40.4 T/B | B6
6.4 T/B | B7
8.6 T/B | B8
2 T/B | B9
